Measurements taken from US20110059887A1.

Biological target: Human IGF Receptor (Type I IGF receptor) (human) (UniProt P08069)
Experiment: microtiter plate antibody capture competition assay with IGF Type I receptor

Human IGF Receptor (Type I IGF receptor) (human), sequence (P08069 31-1367 limits assumed): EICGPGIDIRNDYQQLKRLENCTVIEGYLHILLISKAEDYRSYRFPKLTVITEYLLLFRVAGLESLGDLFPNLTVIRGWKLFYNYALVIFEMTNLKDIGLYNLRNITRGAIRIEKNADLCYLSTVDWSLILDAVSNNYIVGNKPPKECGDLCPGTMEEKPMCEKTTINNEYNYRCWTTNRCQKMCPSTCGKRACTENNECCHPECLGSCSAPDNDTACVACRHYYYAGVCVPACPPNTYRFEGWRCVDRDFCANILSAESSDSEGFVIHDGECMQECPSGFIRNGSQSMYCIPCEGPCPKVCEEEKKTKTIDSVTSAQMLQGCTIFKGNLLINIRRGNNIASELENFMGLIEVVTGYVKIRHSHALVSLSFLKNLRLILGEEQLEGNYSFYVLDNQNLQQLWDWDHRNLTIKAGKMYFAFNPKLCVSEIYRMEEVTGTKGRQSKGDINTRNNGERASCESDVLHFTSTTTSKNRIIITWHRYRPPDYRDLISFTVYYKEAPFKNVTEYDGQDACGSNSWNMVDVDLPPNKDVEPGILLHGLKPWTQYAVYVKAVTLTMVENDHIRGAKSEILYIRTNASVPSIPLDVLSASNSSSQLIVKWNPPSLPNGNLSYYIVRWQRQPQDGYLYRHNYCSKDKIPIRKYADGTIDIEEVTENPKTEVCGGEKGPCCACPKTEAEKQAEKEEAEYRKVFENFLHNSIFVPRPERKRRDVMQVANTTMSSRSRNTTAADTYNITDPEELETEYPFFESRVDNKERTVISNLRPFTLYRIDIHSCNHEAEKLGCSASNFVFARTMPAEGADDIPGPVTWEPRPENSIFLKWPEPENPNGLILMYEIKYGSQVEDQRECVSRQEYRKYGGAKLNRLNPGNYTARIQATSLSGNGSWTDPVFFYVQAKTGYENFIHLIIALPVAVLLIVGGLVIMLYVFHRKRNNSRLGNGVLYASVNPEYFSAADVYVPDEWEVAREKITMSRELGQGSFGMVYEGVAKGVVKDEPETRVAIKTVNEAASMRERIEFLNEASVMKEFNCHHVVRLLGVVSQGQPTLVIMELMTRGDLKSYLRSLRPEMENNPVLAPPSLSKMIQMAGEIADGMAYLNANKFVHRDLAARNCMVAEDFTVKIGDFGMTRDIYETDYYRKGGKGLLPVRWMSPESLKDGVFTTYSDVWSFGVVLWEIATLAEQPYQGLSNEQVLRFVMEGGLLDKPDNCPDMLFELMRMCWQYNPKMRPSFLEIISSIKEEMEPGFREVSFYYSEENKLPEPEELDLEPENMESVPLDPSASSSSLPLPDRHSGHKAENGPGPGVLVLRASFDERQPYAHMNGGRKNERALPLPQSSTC

**Q.** For “KP-insulin (SEQ. ID. NOS. 2 & 4) (ligand; other documents disagree on this pair)”, which Affinity for IGFR (compared to that of human insulin) is on record?
**A.** The Affinity for IGFR (compared to that of human insulin) was 90.
